The values that follow come from PMC8191301 (The Journal of Biological Chemistry, 2021).

By Kd is commonly meant the free concentration of one partner at which half of the binding sites on the other are occupied at equilibrium, for simple one-to-one binding.

B1: p21μ–pol η (peptide)
peptide: KRRMQTLESFFHSKR-NH2
B2: p21μ–Pogo (peptide)
peptide: KRRQKKITDYFHSKR-NH2
B3: p21μ–Cdt1 (peptide)
peptide: KRRQRRVTDFFHSKR-NH2
B4: p21μ–F150H (peptide)
peptide: KRRQTSMTDHYHSKR-NH2
B5: p21μ–Q144N (peptide)
peptide: KRRNTSMTDFYHSKR-NH2
B6: p21μ–T148E (peptide)
peptide: KRRQTSMEDFYHSKR-NH2
B7: p21μ–TD148/149EE (peptide)
peptide: KRRQTSMEEFYHSKR-NH2
B8: p21μ–FY150/151YF (peptide)
peptide: KRRQTSMTDYFHSKR-NH2
B9: p21μ–M147I (peptide)
peptide: KRRQTSITDFYHSKR-NH2
B10: p21μ–Q144D (peptide)
peptide: KRRDTSMTDFYHSKR-NH2
B11: p21μ–TS145/146RK (peptide)
peptide: KRRQRKMTDFYHSKR-NH2
B12: p21μ–TS145/146RR (peptide)
peptide: KRRQRRMTDFYHSKR-NH2
B13: p21μ–T145R (peptide)
peptide: KRRQRSMTDFYHSKR-NH2
B14: p21μ–TS145/146KR (peptide)
peptide: KRRQKRMTDFYHSKR-NH2
B15: p21μ–T145K (peptide)
peptide: KRRQKSMTDFYHSKR-NH2
B16: p21μ–TD148/149DE (peptide)
peptide: KRRQTSMDEFYHSKR-NH2
B17: p21μ–RD2 (designed binder)
peptide: KRRQTRITEYFHSKR-NH2

No end group written: not given here.

T1 sequence (P12004 1-259): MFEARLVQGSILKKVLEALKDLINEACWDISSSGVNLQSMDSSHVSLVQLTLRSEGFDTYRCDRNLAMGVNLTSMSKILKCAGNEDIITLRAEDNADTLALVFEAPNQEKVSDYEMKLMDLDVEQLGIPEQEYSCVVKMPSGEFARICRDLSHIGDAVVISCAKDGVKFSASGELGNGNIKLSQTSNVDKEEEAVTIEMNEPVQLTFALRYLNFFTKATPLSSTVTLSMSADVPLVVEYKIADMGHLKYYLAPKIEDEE
Sequence of hPCNA (P12004 whole entry): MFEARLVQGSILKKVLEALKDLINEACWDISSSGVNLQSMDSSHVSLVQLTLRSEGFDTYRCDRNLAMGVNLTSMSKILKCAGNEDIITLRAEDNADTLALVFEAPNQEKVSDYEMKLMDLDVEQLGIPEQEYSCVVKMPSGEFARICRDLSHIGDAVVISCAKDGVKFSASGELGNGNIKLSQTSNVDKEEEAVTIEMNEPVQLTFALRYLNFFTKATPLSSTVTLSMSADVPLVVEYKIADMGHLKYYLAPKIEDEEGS

One assay concerns the target T1, human Proliferating Cell Nuclear Antigen (hPCNA) (human, UniProt P12004). Briefly: SPR.
Settings: not given
The molecule B1 gave a Kd of 2540 nM. B2 had a Kd of 8.82 nM.

With B3, the Kd was found to be 8.76 nM.

Another assay concerns the target hPCNA (Homo sapiens, UniProt P12004).
Test: not given
The settings on record: isothermal calorimetry; ref [22]; cited from earlier work. On the technique in general: ITC needs no label: the signal is the heat of the interaction.
For the molecule “Tyr151Phe^P8–modified p21 peptide: literature p21 (residues 139–160) peptide with Tyr151Phe modification (GRKRRQTSMTDFFHSKRRLIFS; UniProt P38936 139-160, looked up, variant Y151F) [reference compound]”, the “fold decrease in binding affinity compared with the analogous native peptide (residues 139–160)” value is on record as 3 fold.

Still in this assay, the particulars now being: p21 protein binding hPCNA; ref [13], [14], [15]; cited from earlier work.
Turning to “p21: cell-cycle regulator protein, highest affinity hPCNA-interacting protein known”, the Kd was 2.5 to 90 nM.

The target of a further assay is T1, human Proliferating Cell Nuclear …. Briefly: SPR.
Settings: not given
The source holds these as a separate data set.
Take B4: the Kd was 159 nM. Take B5: the Kd is 772 nM. Turning to B6, the “fold lower affinity than p21μ” value was approximately 6 fold. In the case of B7, the “fold lower affinity than p21μ” value came out at 4 fold. B8 yielded an equilibrium dissociation constant (Kd) of 2.18 nM. Molecule B9 returned a Kd of 11.1 nM. As for B10, binding was characterised by a dissociation constant (Kd) of 714 nM.

B11 came in with a Kd of 17.3 nM. Regarding B12, binding was put at a Kd of 1.83 nM.

For B13, the “fold decrease in affinity relative to p21μ” value turned out to be 7 fold. Molecule B14 displayed a Kd of 37 nM.

As to B15, the “fold decrease in affinity relative to p21μ” value came out at 8 fold. B16: the “fold lower affinity than p21μ” value was 28 fold. B17: the Kd was found to be 1.12 nM.
